Here are results for one molecule from PMC10042835, “Phytochrome B photobodies are comprised of phytochrome B and its primary and secondary interacting proteins” (Nature Communications, 2023).

In the experiment the target is T1, SBP-fused phyB (SBP-phyB), recombinant full-length phyB (Arabidopsis thaliana, UniProt P14713 1-1172, made in phycocyanobilin-producing LMG194 (chromophore); Pfr or Pr form set by a red or far-red light pulse).
T1 construct: phytochrome B (phyB), Arabidopsis thaliana, full length; pBAD-derived vector; the Pfr and Pr forms are told apart by the assay; also called phytochrome B; Pfr form; source: phycocyanobilin-producing E. coli LMG194, purified (Ni-NTA, Streptavidin sepharose)
T1 sequence (looked up): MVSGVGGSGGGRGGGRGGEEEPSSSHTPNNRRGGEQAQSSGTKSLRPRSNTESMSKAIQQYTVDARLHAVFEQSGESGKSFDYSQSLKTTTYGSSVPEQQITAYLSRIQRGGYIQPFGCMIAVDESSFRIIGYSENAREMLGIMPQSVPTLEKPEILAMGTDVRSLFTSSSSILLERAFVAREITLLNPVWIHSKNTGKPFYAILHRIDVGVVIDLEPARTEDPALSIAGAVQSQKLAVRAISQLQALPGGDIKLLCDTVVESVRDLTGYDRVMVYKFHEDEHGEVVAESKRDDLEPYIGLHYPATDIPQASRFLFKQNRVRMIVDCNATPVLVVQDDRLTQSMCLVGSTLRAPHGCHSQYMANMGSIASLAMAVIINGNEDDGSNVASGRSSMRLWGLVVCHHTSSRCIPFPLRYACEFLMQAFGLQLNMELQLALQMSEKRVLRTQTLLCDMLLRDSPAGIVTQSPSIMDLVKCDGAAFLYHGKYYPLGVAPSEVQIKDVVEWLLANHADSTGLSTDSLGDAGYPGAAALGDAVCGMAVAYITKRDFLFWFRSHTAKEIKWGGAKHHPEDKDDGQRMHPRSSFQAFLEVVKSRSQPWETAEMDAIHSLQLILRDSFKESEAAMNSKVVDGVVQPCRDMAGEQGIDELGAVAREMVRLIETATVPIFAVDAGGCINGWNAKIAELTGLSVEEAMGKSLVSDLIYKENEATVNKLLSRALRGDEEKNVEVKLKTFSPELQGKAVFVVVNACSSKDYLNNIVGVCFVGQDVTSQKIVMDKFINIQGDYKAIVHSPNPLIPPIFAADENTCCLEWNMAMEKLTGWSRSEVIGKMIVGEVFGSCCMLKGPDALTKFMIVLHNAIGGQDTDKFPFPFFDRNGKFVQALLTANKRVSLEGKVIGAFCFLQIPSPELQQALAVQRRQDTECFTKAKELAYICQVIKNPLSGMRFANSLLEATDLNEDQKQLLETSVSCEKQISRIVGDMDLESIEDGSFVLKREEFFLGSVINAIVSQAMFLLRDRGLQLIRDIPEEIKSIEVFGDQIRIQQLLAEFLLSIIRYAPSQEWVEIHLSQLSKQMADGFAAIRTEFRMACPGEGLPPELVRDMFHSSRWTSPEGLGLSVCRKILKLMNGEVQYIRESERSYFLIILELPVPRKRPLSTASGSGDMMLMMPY
Description: pull-down; GST fusions incubated with SBP-phyB in the Pfr form (red light pulse 25 μmol/m2/s, 10 min, before the incubation), glutathione resin; 25 mM HEPES, 150 mM KCl, 1 mM DTT, pH 7.40; green safety light. The settings on record: both partners purified.

B1: GST-fused PIF4 (GST-PIF4) (natural protein, Arabidopsis thaliana, UniProt Q8W2F3 1-430, looked up)
chain: MEHQGWSFEENYSLSTNRRSIRPQDELVELLWRDGQVVLQSQTHREQTQTQKQDHHEEALRSSTFLEDQETVSWIQYPPDEDPFEPDDFSSHFFSTMDPLQRPTSETVKPKSSPEPPQVMVKPKACPDPPPQVMPPPKFRLTNSSSGIRETEMEQYSVTTVGPSHCGSNPSQNDLDVSMSHDRSKNIEEKLNPNASSSSGGSSGCSFGKDIKEMASGRCITTDRKRKRINHTDESVSLSDAIGNKSNQRSGSNRRSRAAEVHNLSERRRRDRINERMKALQELIPHCSKTDKASILDEAIDYLKSLQLQLQVMWMGSGMAAAAASAPMMFPGVQPQQFIRQIQSPVQLPRFPVMDQSAIQNNPGLVCQNPVQNQIISDRFARYIGGFPHMQAATQMQPMEMLRFSSPAGQQSQQPSSVPTKTTDGSRLDH
notes: source: E. coli BL21(DE3)-CodonPlus-RIL, purified (Ni-NTA, glutathione agarose); not shown: GST, N-terminal, kept
In the case of B1, the binding result is “binds”.
